B1: Cytochrome c-551, P00099 (parent)
chain: MKPYALLSLLATGTLLAQGAWAEDPEVLFKNKGCVACHAIDTKMVGPAYKDVAAKFAGQAGAEAELAQRIKNGSQGVWGPIPMPPNAVSDDEAQTLAKWVLSQK

Variants of: B1
Conditions: Pseudomonas aeruginosa (strain ATCC 15692 / DSM 22644 / CIP 104116 / JCM 14847 / LMG 12228 / 1C / PRS 101 / PAO1), 25 °C, GdnHCl, CD, Sodium acetate 20 mM, structure 451C, whole UniProt chain shown

In the case of F56Y E65Y, the “ddG of mutation (higher = less stable)” value (pH 3.6) is reported as -3.01 kJ/mol, the denaturant m value (pH 3.6) is reported as 2.7 kcal/mol/M and the “denaturant midpoint (higher = more stable)” value (from here on “denaturant midpoint”) (pH 3.6) is reported as 1.8 M. The unfolding free energy (pH 3.6) was 20.3 kJ/mol, the “ddG of mutation (higher = less stable)” value (pH 5) was -9.5 kJ/mol and the denaturant m value (pH 5) was 2.68 kcal/mol/M. For the same variant, the “denaturant midpoint” value (pH 5) was 2.88 M and the unfolding free energy (pH 5) was 32.3 kJ/mol.

For V100I, the “ddG of mutation (higher = less stable)” value (pH 3.6) was -4.39 kJ/mol, the denaturant m value (pH 3.6) was 2.74 kcal/mol/M and the “denaturant midpoint” value (pH 3.6) was 1.89 M. For the same variant, the unfolding free energy (pH 3.6) was 21.7 kJ/mol, the “ddG of mutation (higher = less stable)” value (pH 5) was -6.23 kJ/mol and the denaturant m value (pH 5) was 2.74 kcal/mol/M. For the same variant, the “denaturant midpoint” value (pH 5) was 2.53 M and the unfolding free energy (pH 5) was 29 kJ/mol.

In the case of E65Y, the “ddG of mutation (higher = less stable)” value (pH 3.6) is reported as -0.377 kJ/mol, the denaturant m value (pH 3.6) is reported as 2.88 kcal/mol/M and the “denaturant midpoint” value (pH 3.6) is reported as 1.46 M. The unfolding free energy (pH 3.6) was 17.7 kJ/mol, the “ddG of mutation (higher = less stable)” value (pH 5) was -4.73 kJ/mol and the denaturant m value (pH 5) was 3.1 kcal/mol/M. For the same variant, the “denaturant midpoint” value (pH 5) was 2.12 M and the unfolding free energy (pH 5) was 27.5 kJ/mol.

With F56Y the “ddG of mutation (higher = less stable)” value (pH 3.6) was -1.17 kJ/mol, the denaturant m value (pH 3.6) was 2.76 kcal/mol/M and the “denaturant midpoint” value (pH 3.6) was 1.6 M. For the same variant, the unfolding free energy (pH 3.6) was 18.5 kJ/mol, the “ddG of mutation (higher = less stable)” value (pH 5) was -5.56 kJ/mol and the denaturant m value (pH 5) was 2.67 kcal/mol/M. For the same variant, the “denaturant midpoint” value (pH 5) was 2.54 M and the unfolding free energy (pH 5) was 28.4 kJ/mol.

With F56Y E65Y V100I the “ddG of mutation (higher = less stable)” value (pH 3.6) was -6.82 kJ/mol, the denaturant m value (pH 3.6) was 2.57 kcal/mol/M and the “denaturant midpoint” value (pH 3.6) was 2.25 M. The unfolding free energy (pH 3.6) was 24.1 kJ/mol, the “ddG of mutation (higher = less stable)” value (pH 5) was -12.3 kJ/mol and the denaturant m value (pH 5) was 2.44 kcal/mol/M. The “denaturant midpoint” value (pH 5) was 3.44 M and the unfolding free energy (pH 5) was 35.1 kJ/mol.

In the case of F29A V35M F56Y E65Y, the “ddG of mutation (higher = less stable)” value (pH 3.6) is reported as -10 kJ/mol, the denaturant m value (pH 3.6) is reported as 2.52 kcal/mol/M and the “denaturant midpoint” value (pH 3.6) is reported as 2.59 M. The unfolding free energy (pH 3.6) was 27.3 kJ/mol, the “ddG of mutation (higher = less stable)” value (pH 5) was -15.7 kJ/mol and the denaturant m value (pH 5) was 2.43 kcal/mol/M. The “denaturant midpoint” value (pH 5) was 3.78 M and the unfolding free energy (pH 5) was 38.5 kJ/mol.

In the case of F29A V35M F56Y E65Y V100I, the “ddG of mutation (higher = less stable)” value (pH 3.6) is reported as -14 kJ/mol, the denaturant m value (pH 3.6) is reported as 2.54 kcal/mol/M and the “denaturant midpoint” value (pH 3.6) is reported as 2.95 M. For the same variant, the unfolding free energy (pH 3.6) was 31.3 kJ/mol, the “ddG of mutation (higher = less stable)” value (pH 5) was -20 kJ/mol and the denaturant m value (pH 5) was 2.44 kcal/mol/M. For the same variant, the “denaturant midpoint” value (pH 5) was 4.2 M and the unfolding free energy (pH 5) was 42.8 kJ/mol.

In the case of F29A V35M V100I, the “ddG of mutation (higher = less stable)” value (pH 3.6) is reported as -7.95 kJ/mol, the denaturant m value (pH 3.6) is reported as 2.45 kcal/mol/M and the “denaturant midpoint” value (pH 3.6) is reported as 2.46 M. The unfolding free energy (pH 3.6) was 25.3 kJ/mol, the “ddG of mutation (higher = less stable)” value (pH 5) was -9.58 kJ/mol and the denaturant m value (pH 5) was 2.47 kcal/mol/M. The “denaturant midpoint” value (pH 5) was 3.13 M and the unfolding free energy (pH 5) was 32.4 kJ/mol.

For F29A V35M, the “ddG of mutation (higher = less stable)” value (pH 3.6) was -6.07 kJ/mol, the denaturant m value (pH 3.6) was 2.56 kcal/mol/M and the “denaturant midpoint” value (pH 3.6) was 2.18 M. For the same variant, the unfolding free energy (pH 3.6) was 23.3 kJ/mol, the “ddG of mutation (higher = less stable)” value (pH 5) was -8.03 kJ/mol and the denaturant m value (pH 5) was 2.57 kcal/mol/M. For the same variant, the “denaturant midpoint” value (pH 5) was 2.87 M and the unfolding free energy (pH 5) was 30.8 kJ/mol.

From FireProtDB (doi:10.1016/j.bpc.2008.09.020)
